Laboratory results published in paper PMC9482650, “Quantitative fragmentomics allow affinity mapping of interactomes” (Nature Communications, 2022).

Legend:
Assay in all cases: holdup assay
Parameters in all cases: key: below the threshold = too weak to quantify, mostly under pKd 3.1 to 4
Details in all cases: plain residues with an end cap or a label only (N-terminal biotin on a linker: ado-ado)
MAGI2_3, Q86UL8 = target: MAGI2_3, Q86UL8
DLG1_2, Q12959 = target: DLG1_2, Q12959
IL16_4, Q14005 = target: IL16_4, Q14005
LIN7C, Q9NUP9 = target: T1, LIN7C, Q9NUP9
T1 sequence (Q9NUP9 88-185, limits assumed, looked up): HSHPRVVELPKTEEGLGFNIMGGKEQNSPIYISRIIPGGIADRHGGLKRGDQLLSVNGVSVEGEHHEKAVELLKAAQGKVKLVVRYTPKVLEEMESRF

GRIP2_4, Q9C0E4 = target: GRIP2_4, Q9C0E4
LDB3, O75112 = target: LDB3, O75112
Inadl_5, Q8NI35 = target: Inadl_5, Q8NI35
DLG4_3, P78352 = target: DLG4_3, P78352
LNX1_1, Q8TBB1 = target: LNX1_1, Q8TBB1
ARHGAP21, Q5T5U3 = target: T2, ARHGAP21, Q5T5U3
T2 sequence (Q5T5U3 45-169, limits assumed, looked up): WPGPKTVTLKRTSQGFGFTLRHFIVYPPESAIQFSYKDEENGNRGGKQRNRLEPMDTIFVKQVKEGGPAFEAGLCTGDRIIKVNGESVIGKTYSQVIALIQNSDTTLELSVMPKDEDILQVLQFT

GRIP2_7, Q9C0E4 = target: GRIP2_7, Q9C0E4
FRMPD4, Q14CM0 = target: FRMPD4, Q14CM0
Inadl_4, Q8NI35 = target: Inadl_4, Q8NI35
GRASP, Q7Z6J2 = target: GRASP, Q7Z6J2
TJP1_2, Q07157 = target: TJP1_2, Q07157
PDLIM1, O00151 = target: PDLIM1, O00151
GOPC, Q9HD26 = target: GOPC, Q9HD26
DLG2_3, Q15700 = target: DLG2_3, Q15700
HTRA1, Q92743 = target: HTRA1, Q92743
LAP2, Q96RT1 = target: LAP2, Q96RT1
APBA2_2, Q99767 = target: T3, APBA2_2, Q99767
T3 sequence (Q99767 654-744, limits assumed, looked up): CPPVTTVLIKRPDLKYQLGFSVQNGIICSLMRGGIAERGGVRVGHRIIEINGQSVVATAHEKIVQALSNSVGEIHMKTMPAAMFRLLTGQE

DLG4_2, P78352 = target: DLG4_2, P78352
Inadl_8, Q8NI35 = target: Inadl_8, Q8NI35
DLG4_1, P78352 = target: DLG4_1, P78352
MAGI1_1, Q96QZ7 = target: MAGI1_1, Q96QZ7
MAGI2_5, Q86UL8 = target: MAGI2_5, Q86UL8
LNX2_2, Q8N448 = target: T4, LNX2_2, Q8N448
T4 sequence (Q8N448 334-432, limits assumed, looked up): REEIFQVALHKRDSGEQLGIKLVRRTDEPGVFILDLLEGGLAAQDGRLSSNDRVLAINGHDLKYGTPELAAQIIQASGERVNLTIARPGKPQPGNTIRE

MAGI2_2, Q86UL8 = target: MAGI2_2, Q86UL8
GORASP1, Q9BQQ3 = target: GORASP1, Q9BQQ3
HTRA4, P83105 = target: T5, HTRA4, P83105
T5 sequence (P83105 378-476, limits assumed, looked up): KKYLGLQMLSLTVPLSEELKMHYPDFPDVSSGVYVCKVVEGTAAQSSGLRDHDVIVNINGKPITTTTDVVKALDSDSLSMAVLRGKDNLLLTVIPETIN

PDZRN3_1, Q9UPQ7 = target: T6, PDZRN3_1, Q9UPQ7
T6 sequence (Q9UPQ7 244-349, limits assumed, looked up): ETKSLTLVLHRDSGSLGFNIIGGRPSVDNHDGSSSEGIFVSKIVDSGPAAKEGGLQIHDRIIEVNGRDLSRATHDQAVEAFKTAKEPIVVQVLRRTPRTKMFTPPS

FRMPD3, Q5JV73 = target: FRMPD3, Q5JV73
IL16_3, Q14005 = target: IL16_3, Q14005
Chain of IL16_3, Q14005 (Q14005 1107-1207): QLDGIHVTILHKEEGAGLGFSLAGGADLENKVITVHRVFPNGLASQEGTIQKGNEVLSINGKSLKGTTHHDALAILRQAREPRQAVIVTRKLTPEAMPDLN

Chain of FRMPD3, Q5JV73 (Q5JV73 12-100): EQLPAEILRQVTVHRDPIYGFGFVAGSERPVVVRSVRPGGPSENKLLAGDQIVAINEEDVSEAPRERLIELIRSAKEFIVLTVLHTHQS
Chain of Inadl_4, Q8NI35 (Q8NI35 547-651): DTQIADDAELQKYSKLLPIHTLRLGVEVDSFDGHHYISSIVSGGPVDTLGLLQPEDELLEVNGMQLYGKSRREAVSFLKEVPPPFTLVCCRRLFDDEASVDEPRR
Chain of DLG4_1, P78352 (P78352 62-152): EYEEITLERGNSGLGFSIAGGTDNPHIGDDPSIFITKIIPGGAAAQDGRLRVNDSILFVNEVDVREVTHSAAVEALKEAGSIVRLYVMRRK
Chain of MAGI2_3, Q86UL8 (Q86UL8 600-682): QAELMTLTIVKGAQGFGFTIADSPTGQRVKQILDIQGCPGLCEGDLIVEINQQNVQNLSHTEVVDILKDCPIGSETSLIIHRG
Chain of LDB3, O75112 (O75112 1-94): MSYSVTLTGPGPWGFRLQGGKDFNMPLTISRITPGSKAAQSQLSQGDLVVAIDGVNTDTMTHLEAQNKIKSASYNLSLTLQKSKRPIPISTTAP
Chain of DLG1_2, Q12959 (Q12959 314-412): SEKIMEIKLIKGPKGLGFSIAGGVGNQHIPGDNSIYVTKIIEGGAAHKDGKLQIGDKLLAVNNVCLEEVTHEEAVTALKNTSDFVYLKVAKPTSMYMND
Chain of MAGI1_1, Q96QZ7 (Q96QZ7 1-106): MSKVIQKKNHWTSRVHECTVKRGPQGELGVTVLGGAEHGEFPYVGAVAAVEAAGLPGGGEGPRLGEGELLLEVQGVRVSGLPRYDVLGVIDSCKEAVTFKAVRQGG
Chain of TJP1_2, Q07157 (Q07157 181-274): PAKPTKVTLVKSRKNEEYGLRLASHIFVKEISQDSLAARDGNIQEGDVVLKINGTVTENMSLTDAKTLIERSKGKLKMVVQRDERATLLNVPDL
Chain of IL16_4, Q14005 (Q14005 1229-1329): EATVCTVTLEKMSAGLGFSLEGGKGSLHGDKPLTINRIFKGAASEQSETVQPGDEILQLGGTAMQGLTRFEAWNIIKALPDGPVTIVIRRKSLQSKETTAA
Chain of MAGI2_2, Q86UL8 (Q86UL8 410-522): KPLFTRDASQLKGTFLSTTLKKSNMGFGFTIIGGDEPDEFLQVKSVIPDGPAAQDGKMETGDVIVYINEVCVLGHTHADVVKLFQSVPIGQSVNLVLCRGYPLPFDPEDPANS
Chain of PDLIM1, O00151 (O00151 1-87): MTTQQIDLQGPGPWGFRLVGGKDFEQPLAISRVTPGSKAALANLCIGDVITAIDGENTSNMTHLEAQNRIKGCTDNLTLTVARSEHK
Chain of GRIP2_4, Q9C0E4 (Q9C0E4 446-548): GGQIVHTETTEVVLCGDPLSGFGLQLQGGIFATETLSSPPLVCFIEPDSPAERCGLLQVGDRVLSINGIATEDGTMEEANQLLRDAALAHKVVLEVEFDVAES
Chain of DLG4_2, P78352 (P78352 155-259): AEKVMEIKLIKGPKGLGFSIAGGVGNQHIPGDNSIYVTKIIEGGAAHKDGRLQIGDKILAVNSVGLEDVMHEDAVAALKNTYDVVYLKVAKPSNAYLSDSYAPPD
Chain of MAGI2_5, Q86UL8 (Q86UL8 915-1017): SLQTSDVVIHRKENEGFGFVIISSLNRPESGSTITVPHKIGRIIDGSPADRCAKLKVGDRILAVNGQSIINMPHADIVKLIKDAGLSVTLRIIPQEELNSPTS
Chain of LAP2, Q96RT1 (Q96RT1 other isoform, or with tags, fused parts or gaps): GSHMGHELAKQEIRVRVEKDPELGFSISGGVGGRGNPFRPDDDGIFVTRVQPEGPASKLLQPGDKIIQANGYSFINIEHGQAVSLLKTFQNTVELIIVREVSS
Chain of GRIP2_7, Q9C0E4 (Q9C0E4 934-1023): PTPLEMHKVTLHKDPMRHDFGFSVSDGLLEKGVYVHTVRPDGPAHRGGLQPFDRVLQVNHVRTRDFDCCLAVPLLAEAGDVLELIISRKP
Chain of Inadl_5, Q8NI35 (Q8NI35 673-780): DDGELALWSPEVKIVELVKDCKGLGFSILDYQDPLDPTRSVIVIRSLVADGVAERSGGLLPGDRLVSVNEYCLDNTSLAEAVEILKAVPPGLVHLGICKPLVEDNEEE
Chain of LNX1_1, Q8TBB1 (Q8TBB1 261-371): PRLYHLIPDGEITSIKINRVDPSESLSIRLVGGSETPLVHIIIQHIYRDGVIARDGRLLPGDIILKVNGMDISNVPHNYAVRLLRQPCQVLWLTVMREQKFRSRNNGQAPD
Chain of HTRA1, Q92743 (Q92743 360-477): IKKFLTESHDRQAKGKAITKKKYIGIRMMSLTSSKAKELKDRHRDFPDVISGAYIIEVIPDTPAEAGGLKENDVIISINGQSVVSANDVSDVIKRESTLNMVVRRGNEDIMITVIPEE
Chain of DLG4_3, P78352 (P78352 306-403): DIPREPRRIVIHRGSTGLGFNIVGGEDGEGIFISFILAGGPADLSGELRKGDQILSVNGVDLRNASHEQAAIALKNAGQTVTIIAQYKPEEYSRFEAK
Chain of Inadl_8, Q8NI35 (Q8NI35 1425-1530): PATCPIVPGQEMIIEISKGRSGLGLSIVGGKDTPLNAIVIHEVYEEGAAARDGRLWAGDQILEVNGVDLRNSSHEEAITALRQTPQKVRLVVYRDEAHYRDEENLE
Chain of GRASP, Q7Z6J2 (Q7Z6J2 96-193): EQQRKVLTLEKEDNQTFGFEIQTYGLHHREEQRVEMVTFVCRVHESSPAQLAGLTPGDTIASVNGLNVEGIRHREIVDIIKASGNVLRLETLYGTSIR
Chain of GORASP1, Q9BQQ3 (Q9BQQ3 1-208): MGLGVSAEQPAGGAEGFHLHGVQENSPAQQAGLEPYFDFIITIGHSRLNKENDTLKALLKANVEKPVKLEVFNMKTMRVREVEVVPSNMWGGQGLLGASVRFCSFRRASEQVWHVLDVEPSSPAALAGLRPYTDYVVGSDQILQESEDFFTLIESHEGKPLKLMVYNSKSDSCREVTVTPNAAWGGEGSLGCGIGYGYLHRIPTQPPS
Chain of FRMPD4, Q14CM0 (Q14CM0 67-160): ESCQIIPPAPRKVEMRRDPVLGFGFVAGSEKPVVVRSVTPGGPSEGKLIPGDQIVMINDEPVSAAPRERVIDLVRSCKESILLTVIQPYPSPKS

GCQGETEDVL [PTH2R, P49190]
pKd (MAGI2_3, Q86UL8): below the threshold
pKd (DLG1_2, Q12959): below the threshold
pKd (IL16_4, Q14005): below the threshold
pKd (LIN7C, Q9NUP9): below the threshold
pKd (GRIP2_4, Q9C0E4): below the threshold
pKd (LDB3, O75112): below the threshold
pKd (Inadl_5, Q8NI35): below the threshold
pKd (DLG4_3, P78352): below the threshold
pKd (LNX1_1, Q8TBB1): below the threshold
pKd (ARHGAP21, Q5T5U3): 4.18
pKd (GRIP2_7, Q9C0E4): below the threshold
pKd (FRMPD4, Q14CM0): 4.21
pKd (Inadl_4, Q8NI35): below the threshold
pKd (GRASP, Q7Z6J2): 3.62
pKd (TJP1_2, Q07157): below the threshold
pKd (PDLIM1, O00151): below the threshold
pKd (GOPC, Q9HD26): below the threshold
pKd (DLG2_3, Q15700): below the threshold
pKd (HTRA1, Q92743): 4.14
pKd (LAP2, Q96RT1): below the threshold
pKd (APBA2_2, Q99767): below the threshold
pKd (DLG4_2, P78352): below the threshold
pKd (Inadl_8, Q8NI35): below the threshold
pKd (DLG4_1, P78352): 3.51
pKd (MAGI1_1, Q96QZ7): below the threshold
pKd (MAGI2_5, Q86UL8): below the threshold
pKd (LNX2_2, Q8N448): below the threshold
pKd (MAGI2_2, Q86UL8): below the threshold
pKd (GORASP1, Q9BQQ3): below the threshold
pKd (HTRA4, P83105): below the threshold
pKd (PDZRN3_1, Q9UPQ7): below the threshold
pKd (FRMPD3, Q5JV73): below the threshold
pKd (IL16_3, Q14005): below the threshold

SRPRPDDLEI [GJA1, P17302]
pKd (MAGI2_3, Q86UL8): below the threshold
pKd (DLG1_2, Q12959): below the threshold
pKd (IL16_4, Q14005): below the threshold
pKd (LIN7C, Q9NUP9): below the threshold
pKd (GRIP2_4, Q9C0E4): below the threshold
pKd (LDB3, O75112): below the threshold
pKd (Inadl_5, Q8NI35): below the threshold
pKd (DLG4_3, P78352): below the threshold
pKd (LNX1_1, Q8TBB1): below the threshold
pKd (ARHGAP21, Q5T5U3): 3.74
pKd (GRIP2_7, Q9C0E4): below the threshold
pKd (FRMPD4, Q14CM0): below the threshold
pKd (Inadl_4, Q8NI35): below the threshold
pKd (GRASP, Q7Z6J2): below the threshold
pKd (TJP1_2, Q07157): 4.53
pKd (PDLIM1, O00151): below the threshold
pKd (GOPC, Q9HD26): below the threshold
pKd (DLG2_3, Q15700): below the threshold
pKd (HTRA1, Q92743): below the threshold
pKd (LAP2, Q96RT1): below the threshold
pKd (APBA2_2, Q99767): below the threshold
pKd (DLG4_2, P78352): below the threshold
pKd (Inadl_8, Q8NI35): below the threshold
pKd (DLG4_1, P78352): below the threshold
pKd (MAGI1_1, Q96QZ7): below the threshold
pKd (MAGI2_5, Q86UL8): below the threshold
pKd (LNX2_2, Q8N448): below the threshold
pKd (MAGI2_2, Q86UL8): below the threshold
pKd (GORASP1, Q9BQQ3): below the threshold
pKd (HTRA4, P83105): below the threshold
pKd (PDZRN3_1, Q9UPQ7): below the threshold
pKd (FRMPD3, Q5JV73): below the threshold
pKd (IL16_3, Q14005): below the threshold

NVYGTESVKI [GRIA3, P42263]
pKd (MAGI2_3, Q86UL8): below the threshold
pKd (DLG1_2, Q12959): below the threshold
pKd (IL16_4, Q14005): below the threshold
pKd (LIN7C, Q9NUP9): below the threshold
pKd (GRIP2_4, Q9C0E4): below the threshold
pKd (LDB3, O75112): below the threshold
pKd (Inadl_5, Q8NI35): below the threshold
pKd (DLG4_3, P78352): below the threshold
pKd (LNX1_1, Q8TBB1): below the threshold
pKd (ARHGAP21, Q5T5U3): 4.38
pKd (GRIP2_7, Q9C0E4): below the threshold
pKd (FRMPD4, Q14CM0): below the threshold
pKd (Inadl_4, Q8NI35): below the threshold
pKd (GRASP, Q7Z6J2): below the threshold
pKd (TJP1_2, Q07157): 3.59
pKd (PDLIM1, O00151): below the threshold
pKd (GOPC, Q9HD26): below the threshold
pKd (DLG2_3, Q15700): below the threshold
pKd (HTRA1, Q92743): 3.98
pKd (LAP2, Q96RT1): below the threshold
pKd (APBA2_2, Q99767): below the threshold
pKd (DLG4_2, P78352): below the threshold
pKd (Inadl_8, Q8NI35): below the threshold
pKd (DLG4_1, P78352): below the threshold
pKd (MAGI1_1, Q96QZ7): below the threshold
pKd (MAGI2_5, Q86UL8): below the threshold
pKd (LNX2_2, Q8N448): 3.74
pKd (MAGI2_2, Q86UL8): below the threshold
pKd (GORASP1, Q9BQQ3): below the threshold
pKd (HTRA4, P83105): 4
pKd (PDZRN3_1, Q9UPQ7): below the threshold
pKd (FRMPD3, Q5JV73): below the threshold
pKd (IL16_3, Q14005): below the threshold

ANGLMQTSKL [SSTR5, P35346]
pKd (MAGI2_3, Q86UL8): 3.48
pKd (DLG1_2, Q12959): below the threshold
pKd (IL16_4, Q14005): 3.84
pKd (LIN7C, Q9NUP9): below the threshold
pKd (GRIP2_4, Q9C0E4): below the threshold
pKd (LDB3, O75112): below the threshold
pKd (Inadl_5, Q8NI35): below the threshold
pKd (DLG4_3, P78352): below the threshold
pKd (LNX1_1, Q8TBB1): below the threshold
pKd (ARHGAP21, Q5T5U3): 3.97
pKd (GRIP2_7, Q9C0E4): below the threshold
pKd (FRMPD4, Q14CM0): 3.69
pKd (Inadl_4, Q8NI35): below the threshold
pKd (GRASP, Q7Z6J2): 4.68
pKd (TJP1_2, Q07157): below the threshold
pKd (PDLIM1, O00151): below the threshold
pKd (GOPC, Q9HD26): 4.93
pKd (DLG2_3, Q15700): 3.48
pKd (HTRA1, Q92743): below the threshold
pKd (LAP2, Q96RT1): below the threshold
pKd (APBA2_2, Q99767): below the threshold
pKd (DLG4_2, P78352): below the threshold
pKd (Inadl_8, Q8NI35): below the threshold
pKd (DLG4_1, P78352): below the threshold
pKd (MAGI1_1, Q96QZ7): below the threshold
pKd (MAGI2_5, Q86UL8): below the threshold
pKd (LNX2_2, Q8N448): below the threshold
pKd (MAGI2_2, Q86UL8): below the threshold
pKd (GORASP1, Q9BQQ3): below the threshold
pKd (HTRA4, P83105): 3.7
pKd (PDZRN3_1, Q9UPQ7): below the threshold
pKd (FRMPD3, Q5JV73): below the threshold
pKd (IL16_3, Q14005): below the threshold
